Measured values taken from patent US20180064758A1.

What was measured:
[1] = target: Recombinant soluble CD19 ectodomain (made in 293T cells) (UniProt P15391); test: flow cytometry of transduced primary human T-cells stained with anti-CD3 and, for CAR, with recombinant CD19. Other quadrants: 74.7 upper left, 1.86 lower left, 0.16 lower right. The non-transduced control has 0.27 in the upper right
[2] = target: CD19 (partner in the 'Cellular affinity' column); test: column 'Cellular affinity' of the drawn table; unit not given, the assay is not described in the filing and the format of the construct is not stated
[3] = target: Recombinant soluble CD19 ectodomain (made in 293T cells) (UniProt P15391); test: flow cytometry of transduced primary human T-cells stained with anti-CD3 and, for CAR, with recombinant CD19. Other quadrants: 67.5 upper left, 1.43 lower left, 0.24 lower right. The non-transduced control has 0.27 in the upper right

Chain of UniProt P15391 (P15391 20-291 limits assumed): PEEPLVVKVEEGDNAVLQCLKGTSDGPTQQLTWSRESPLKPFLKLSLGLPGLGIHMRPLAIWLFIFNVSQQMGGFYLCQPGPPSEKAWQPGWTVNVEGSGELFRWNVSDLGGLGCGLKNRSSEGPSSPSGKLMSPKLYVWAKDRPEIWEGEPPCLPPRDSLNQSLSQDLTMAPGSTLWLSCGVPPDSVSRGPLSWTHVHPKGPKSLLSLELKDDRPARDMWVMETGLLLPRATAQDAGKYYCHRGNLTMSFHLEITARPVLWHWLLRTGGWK

| Substance | Cellular affinity [2] | also measured |
| --- | --- | --- |
| 4G7 CAR in the Campana format (CD8 stalk spacer and transmembrane domain, 41BB endodomain, CD3-Zeta endodomain), on primary human T-cells | – | % of cells in the CD3+ CAR+ quadrant (upper right) [1]: 23.3% |
| 4G7 scFv-Fc (soluble recombinant scFv in scFv-Fc format, made in 293T cells) (Fc fusion) | 1e-09 | – |
| Fmc63 scFv-Fc (soluble recombinant scFv in scFv-Fc format, made in 293T cells) (Fc fusion) | 2e-10 | – |
| fmc63 CAR in the Campana format (CD8 stalk spacer and transmembrane domain, 41BB endodomain, CD3-Zeta endodomain), on primary human T-cells | – | % of cells in the CD3+ CAR+ quadrant (upper right) [3]: 30.8% |
